We go through 1 molecule from patent US12290533B2, “Extracellular vesicles and methods of using” (NUtech Ventures, priority 2018, dated 2025).

This assay relates to human umbilical vein endothelial cells (HUVEC). In words: Uptake of fluorophore-labeled cow's milk exosomes into HUVECs. It is filed as cell-based. As to conditions: exosomal surface proteins removed by proteinase K.

B1: proteinase K: non-specific protease used to remove surface proteins of exosomes or cells (protein, UniProt P06873 106-384, looked up)
Proteinase K: AAQTNAPWGLARISSTSPGTSTYYYDESAGQGSCVYVIDTGIEASHPEFEGRAQMVKTYYYSSRDGNGHGTHCAGTVGSRTYGVAKKTQLFGVKVLDDNGSGQYSTIIAGMDFVASDKNNRNCPKGVVASLSLGGGYSSSVNSAAARLQSSGVMVAVAAGNNNADARNYSPASEPSVCTVGASDRYDRRSSFSNYGSVLDIFGPGTSILSTWIGGSTRSISGTSMATPHVAGLAAYLMTLGKTTAASACRYIADTANKGDLSNIPFGTVNLLAYNNYQA
In the case of B1, the exosome uptake is ~50 % of controls.
